The experiment has as its target Nfs1/Isd11/Isu2 (SDU) complex (Homo sapiens, UniProt Q9Y697). Description: cysteine desulfurase activity titration.

B1: Frataxin 82-210 (protein)
chain: GTLGHPGSLDETTYERLAEETLDSLAEFFEDLADKPYTFEDYDVSFGSGVLTVKLGGDLGTYVINKQTPNKQIWLSSPSSGPKRYDWTGKNWVYSHDGVSLHELLAAELTKALKTKLDLSSLAYSGKDA
Usually Kd stands for the constant that tells how readily two partners part at equilibrium. Low values mean higher affinity, high ones lower affinity. With B1, the Kd is 220 nM.

Source of the values: PMC3319458 (2012).
